Several values for one entry are separate records, joined by “and”; a condition that tells them apart may be missing. Equal entries are not always repeated. Where two headings read alike, the source gives them in different places. Bridges are numbered along the chain shown (N, C = ends). Where no end group is shown, it is not given here. [ ]: non-standard residue; d: D form. Gla = N[C@@H](CC(C(=O)O)C(=O)O)C(=O)O
Legend:
[1] = biological target: T1, secPHEX (Homo sapiens, UniProt P78562); assay: secPHEX enzymatic assay: inhibition of PTHrP107-139 hydrolysis (RP-HPLC); format: biochemical
T1 construct: made in house; host or cells: LLC-PK1 cells (porcine kidney; ATCC No. CRL-1392), stably transfected; purified from culture medium
T1 sequence (P78562 46-749): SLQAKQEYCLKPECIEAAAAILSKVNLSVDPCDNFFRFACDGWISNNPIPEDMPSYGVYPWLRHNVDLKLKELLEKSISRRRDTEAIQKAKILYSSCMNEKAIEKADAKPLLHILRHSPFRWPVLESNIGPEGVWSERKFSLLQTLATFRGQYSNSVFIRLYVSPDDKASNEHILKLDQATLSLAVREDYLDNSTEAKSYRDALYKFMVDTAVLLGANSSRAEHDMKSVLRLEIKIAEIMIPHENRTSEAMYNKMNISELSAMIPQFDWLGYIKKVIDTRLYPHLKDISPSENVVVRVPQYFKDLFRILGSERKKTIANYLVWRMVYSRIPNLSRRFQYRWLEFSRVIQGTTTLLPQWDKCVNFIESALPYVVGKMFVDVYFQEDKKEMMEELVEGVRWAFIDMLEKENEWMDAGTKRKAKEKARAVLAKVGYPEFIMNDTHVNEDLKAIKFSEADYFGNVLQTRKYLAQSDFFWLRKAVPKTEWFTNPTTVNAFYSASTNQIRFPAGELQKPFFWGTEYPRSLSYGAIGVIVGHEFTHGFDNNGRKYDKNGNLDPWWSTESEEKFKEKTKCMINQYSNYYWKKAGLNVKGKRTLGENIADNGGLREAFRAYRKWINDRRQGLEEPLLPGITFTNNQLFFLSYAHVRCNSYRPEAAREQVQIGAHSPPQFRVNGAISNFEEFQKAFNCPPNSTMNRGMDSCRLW
Protocol: (§1) One μg of purified secPHEX or secPHEXE581V was incubated with 5 μg of peptide substrate for 30 min at 37° C. in a volume of 200 μl of 50 mM MES (2-(N-morpholino) ethanesulfonic acid) pH6.5, 150 mM NaCl. Peptide PTHrP107-139 (human origin and obtained from Bachem, Philadelphia, Pa., U.S.A. or Peninsula Laboratories, Belmont, Calif., U.S.A.), used as a substrate, was prepared as 1 μg/μl solutions also containing 1 μg/μl of the tripeptide Tyr-Gly-Gly. This latter peptide, which is not a PHEX substrate, was used as an internal standard. Peptide substrate AWLDSGV (Dr Gilles Lajoie, Waterloo Peptide Synthesis C2-360 University of Waterloo, Waterloo, ON Canada) (SEQ ID NO: 1) was digested with secPHEX in the same manner as described above for PTHrP107-139. To determine osteocalcin inhibitory potency on secPHEX activity, osteocalcin (Peptide Research Institute, Japan or E. coli-produced) was added to the reaction mixture to final concentrations varying from 10^−8 to 5×10^−4 M. To determine the effect of agents on the inhibitory activity of osteocalcin, the agents were added to a reaction mixture containing secPHEX, peptide substrate and 5×10^−6 M osteocalcin. […] Following the incubation period, hydrolysis was stopped by the addition of EDTA to a final concentration of 5 mM. The potentiating agent was identified when the intact substrate was determined to be present in a […] concentration than in the absence of the potentiating agent (see FIG. 6). Results were quantified by comparing, after normalization for the amounts of peptide Tyr-Gly-Gly present in the samples, the areas under the peaks of the substrate.
Identification and quantification of the enzymatic activity of secPHEX on the PTHrP107-139 peptide was performed by reverse phase high performance liquid chromatography (RP-HPLC) on a C18 μBondapak analytical column (Waters, Mississauga, ON, Canada) with a UV detector set at 214 nm. Peptides were resolved with a linear gradient of 5% B to 85% B in 45 min at the flow rate of 0.4 ml/min [mobile phase A=0.1% trifluoroacetic acid; mobile phase B=80% acetonitrile (CH3CN), 0.1% trifluoroacetic acid].

[2] = biological target: T2, osteocalcin (Homo sapiens, UniProt P02818); assay: Effect of Ca2+ on the inhibitory action of osteocalcin on secPHEX; format: biochemical
T2 construct: The mature peptide is 49 amino acids long with 3 Gla residues and one difulfide bond; purchased Peptide Research Institute, Japan
T2 sequence (P02818 52-100): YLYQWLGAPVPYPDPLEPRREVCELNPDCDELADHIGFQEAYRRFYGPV
Protocol: One μg of purified secPHEX or secPHEXE581V was incubated with 5 μg of peptide substrate for 30 min at 37° C. in a volume of 200 μl of 50 mM MES (2-(N-morpholino) ethanesulfonic acid) pH6.5, 150 mM NaCl. Peptide PTHrP107-139 (human origin and obtained from Bachem, Philadelphia, Pa., U.S.A. or Peninsula Laboratories, Belmont, Calif., U.S.A.), used as a substrate, was prepared as 1 μg/μl solutions also containing 1 μg/μl of the tripeptide Tyr-Gly-Gly. This latter peptide, which is not a PHEX substrate, was used as an internal standard. Peptide substrate AWLDSGV (Dr Gilles Lajoie, Waterloo Peptide Synthesis C2-360 University of Waterloo, Waterloo, ON Canada) (SEQ ID NO: 1) was digested with secPHEX in the same manner as described above for PTHrP107-139. […] The potentiating agent was identified when the intact substrate was determined to be present in a […] concentration than in the absence of the potentiating agent (see FIG. 6). Results were quantified by comparing, after normalization for the amounts of peptide Tyr-Gly-Gly present in the samples, the areas under the peaks of the substrate.
(§2) Identification and quantification of the enzymatic activity of secPHEX on the PTHrP107-139 peptide was performed by reverse phase high performance liquid chromatography (RP-HPLC) on a C18 μBondapak analytical column (Waters, Mississauga, ON, Canada) with a UV detector set at 214 nm. […]

[3] = tested on: PTHrP107-139; assay: secPHEX activity: digestion of PTHrP107-139 (RP-HPLC, MALDI-Tof); format: biochemical, human
Protocol: as §1, §2
The pH optimum for the reaction was determined by progressively increasing the pH of the MES buffer from 5.0 to 7.0 or of a Tris buffer (50 mM Tris.HCl, 150 mM NaCl) from 7.0 to 9.0.

[4] = tested on: Hyp male mice; assay: secPHEX injection to Hyp mice, daily for 14 days: serum alkaline phosphatase and phosphate; format: in vivo, mouse
Protocol: Purified secPHEX solubilized in 1 mM phosphate pH 7.4, 150 mM NaCl, was administered intravenously daily for 4 or 14 consecutive days through the subclavian vein Hyp males (12 weeks of age). The same number of aged-matched Hyp male mice were treated with vehicle only as controls.
In a similar experiment, Hyp male mice where injected with daily doses of 1 mg/kg secPHEX for 14 days.

[5] = tested on: Hyp male mice; assay: secPHEX injection to Hyp mice, daily for 4 days: serum phosphate; format: in vivo, mouse; parameters: serum phosphate, Day 0 / serum phosphate, Day 4: unit not given here; details: for serum phosphate, Day 0 / serum phosphate, Day 4: individual Hyp mice; for serum phosphate, Day 0: baseline before treatment
Protocol: Purified secPHEX solubilized in 1 mM phosphate pH 7.4, 150 mM NaCl, was administered intravenously daily for 4 or 14 consecutive days through the subclavian vein Hyp males (12 weeks of age). The same number of aged-matched Hyp male mice were treated with vehicle only as controls. […]

[6] = Precipitation of secPHEX in low-salt solutions; format: physicochemical; details: NaCl added to reaction mixture
Protocol: SecPHEX activity was assayed in 50 mM MES pH 6.5 containing 150 mM NaCl (26). Sodium chloride was added to the reaction mixture because we observed that secPHEX precipitated out in solutions containing less than 50 mM salt.

[7] = 1 mM added to the reaction mixture
[8] = PTHrP107-139 substrate, inhibitor varied from 0.1 to 50 mM, read-out: concentration giving 50% inhibition of secPHEX activity
[9] = 1 mg/kg daily, individual Hyp mice

Molecule: c1cnc2c(c1)ccc1cccnc12 [1,10-phenanthroline]
- inhibition of secPHEX activity [1, 7]: fully inhibited

Molecule: [Ca+2] [Ca^2+, CaCl2, reference compound]
- EC50 ([2]; CaCl2 varied from 10^−6 to 10^−2 M, constant osteocalcin 2×10^−6M (FIG. 6B), read-out: Ca2+ concentration necessary to reduce the inhibitory potency of osteocalcin by 50%): 5 mM
- effect on secPHEX activity in the absence of osteocalcin ([1]; data not shown): no effect

Molecule: O=C(O)CN(CCN(CC(=O)O)CC(=O)O)CC(=O)O [EDTA]
- inhibition of secPHEX activity [1, 7]: fully inhibited

Molecule: O=P(O)(O)O [Pi]
- IC50 [1, 8]: 3.5 mM

Molecule: O=P(O)(O)OP(=O)(O)O [pyrophosphate]
- IC50 [1, 8]: 2.5 mM

Molecule: E. coli-produced osteocalcin: human osteocalcin without Gla residues made in E. coli (pGEX-OST vector) (YLYQWLGAPVPYPDPLEPRREVCELNPDCDELADHIGFQEAYRRFYGPV)
- modulation of inhibitory activity on secPHEX by Ca2+ ([2]; FIG. 7B): not modulated
- inhibitory potency on secPHEX compared to osteocalcin extracted from bones ([1]; FIG. 7A): similar

Molecule: osteocalcin: non-collagenous bone protein, mature peptide 49 amino acids with 3 Gla residues; extracted from human bones (YLYQWLGAPVPYPDPL[Gla]PRR[Gla]VC[Gla]LNPDCDELADHIGFQEAYRRFYGPV; disulfide 23-29 (inferred))
- inhibition of secPHEX activity ([1]; 5×10^−6 M osteocalcin): approximately 75%
- degradation by secPHEX ([1]; data not shown): not degraded
- IC50 ([1]; secPHEX-mediated PTHrP107-139 hydrolysis, FIG. 6A, read-out: concentration giving fifty percent inhibition of secPHEX activity): 0.0036 mM

B1: secPHEX: soluble, secreted form of recombinant human PHEX zinc metallopeptidase produced in LLC-PK1 cells (protein, UniProt P78562 42-641, looked up)
extracellular domain: QGLLSLQAKQEYCLKPECIEAAAAILSKVNLSVDPCDNFFRFACDGWISNNPIPEDMPSYGVYPWLRHNVDLKLKELLEKSISRRRDTEAIQKAKILYSSCMNEKAIEKADAKPLLHILRHSPFRWPVLESNIGPEGVWSERKFSLLQTLATFRGQYSNSVFIRLYVSPDDKASNEHILKLDQATLSLAVREDYLDNSTEAKSYRDALYKFMVDTAVLLGANSSRAEHDMKSVLRLEIKIAEIMIPHENRTSEAMYNKMNISELSAMIPQFDWLGYIKKVIDTRLYPHLKDISPSENVVVRVPQYFKDLFRILGSERKKTIANYLVWRMVYSRIPNLSRRFQYRWLEFSRVIQGTTTLLPQWDKCVNFIESALPYVVGKMFVDVYFQEDKKEMMEELVEGVRWAFIDMLEKENEWMDAGTKRKAKEKARAVLAKVGYPEFIMNDTHVNEDLKAIKFSEADYFGNVLQTRKYLAQSDFFWLRKAVPKTEWFTNPTTVNAFYSASTNQIRFPAGELQKPFFWGTEYPRSLSYGAIGVIVGHEFTHGFDNNGRKYDKNGNLDPWWSTESEEKFKEKTKCMINQYSNYYWKKAGLNVKGKRTLG
modifications: extracellular domain
notes: soluble, secreted form of recombinant human PHEX zinc metallopeptidase produced in LLC-PK1 cells
- pH of maximum activity ([3]; MES buffer pH 5.0 to 7.0, Tris buffer pH 7.0 to 9.0): 6.5
- cleavage site specificity in PTHrP107-139 ([3]; fragments identified by MALDI-Tof): amino-terminus of aspartate residues
- serum phosphate levels at the 7th and 14th day ([4]; 1 mg/kg daily for 14 days): same level as pretreatment
- effect on serum alkaline phosphatase levels ([4]; 1 mg/kg daily for 14 days, normal levels 71+/−11 units, Student t test p<0.05): significantly reduced toward normal levels
- alkaline phosphatase level, 7th day of treatment [4, 9]: 183 units and 235 units and 233 units and 199 units and 246 units
- alkaline phosphatase level, 14th day of treatment [4, 9]: 196 units (2×) and 208 units and 193 units and 218 units
- alkaline phosphatase level, pre-treatment ([4]; 1 mg/kg group, individual Hyp mice, 7 day pre-treatment): 292 units and 357 units and 377 units and 348 units and 323 units
- effect on serum phosphate ([5]; daily injection over 4 days, as a function of dose, Student t test p<0.05): decreased
- serum phosphate, Day 0 ([5]; dose 1 mg/kg group, 1 mg/kg): 1.68 and 1.25 and 1.36 and 1.37
- serum phosphate, Day 4 ([5]; dose 1 mg/kg i.v. daily for 4 days, 1 mg/kg): 1.23 and 1.06 and 1.18 and 1.31
- serum phosphate, Day 0 ([5]; dose 10 mg/kg group, 10 mg/kg): 1.16 and 1.12 and 1.39 and 1.14
- serum phosphate, Day 4 ([5]; dose 10 mg/kg i.v. daily for 4 days, 10 mg/kg): 0.92 and 0.82 and 0.89 and 0.87
- salt concentration below which secPHEX precipitated out [6]: less than 50 mM

B2: secPHEXE581V: inactive secPHEX protein bearing the mutation Glu 581 to Val (protein)
chain: QGLLSLQAKQEYCLKPECIEAAAAILSKVNLSVDPCDNFFRFACDGWISNNPIPEDMPSYGVYPWLRHNVDLKLKELLEKSISRRRDTEAIQKAKILYSSCMNEKAIEKADAKPLLHILRHSPFRWPVLESNIGPEGVWSERKFSLLQTLATFRGQYSNSVFIRLYVSPDDKASNEHILKLDQATLSLAVREDYLDNSTEAKSYRDALYKFMVDTAVLLGANSSRAEHDMKSVLRLEIKIAEIMIPHENRTSEAMYNKMNISELSAMIPQFDWLGYIKKVIDTRLYPHLKDISPSENVVVRVPQYFKDLFRILGSERKKTIANYLVWRMVYSRIPNLSRRFQYRWLEFSRVIQGTTTLLPQWDKCVNFIESALPYVVGKMFVDVYFQEDKKEMMEELVEGVRWAFIDMLEKENEWMDAGTKRKAKEKARAVLAKVGYPEFIMNDTHVNEDLKAIKFSEADYFGNVLQTRKYLAQSDFFWLRKAVPKTEWFTNPTTVNAFYSASTNQIRFPAGELQKPFFWGTEYPRSLSYGAIGVIVGHVFTHGFDNNGRKYDKNGNLDPWWSTESEEKFKEKTKCMINQYSNYYWKKAGLNVKGKRTLG
- degradation of PTHrP107-139 (in words) ([3]; similar conditions as secPHEX, FIG. 3D): failed to degrade

Source: US7399466B2, “Method and compositions for promoting osteogenesis” (Enobia Pharma Inc., priority 2000, dated 2008)
